Measurements from patent US9073982B2, “Targets for regulation of angiogenesis” (The University of North Carolina at Chapel Hill, priority 2008, dated 2015).
Entries after “also recorded” stand apart in the source; their conditions may differ.

What was measured:
[1] = system: mouse endothelial cells (MEC); assay: Scratch wound assay on mouse endothelial cells; format: cell-based; details: SFRP2 0.7 pM-700 pM, 16 to 32 hours
Experimental: The migration properties of SFRP2 on mouse endothelial cells (MEC) cells were evaluated using a scratch wound assay. Mouse endothelial cells were plated at 10,000 cells/well into a 96 well plate and allowed to become confluent in DMEM with 10% FBS. The cells were quiesced in DMEM without serum for 18 hours. The wound was formed using a 1 ml pipette tip and a 0.7 pM-700 pM dose curve of mouse recombinant SFRP2 (US Biologicals, Swampscott) was added to the cells. Each concentration was performed in triplicate and the experiment was repeated three times with similar results. Migration was measured from 16 to 32 hours. Migration distance was measured at each time point. Statistical differences between SFRP2 and control were evaluated with an unpaired two-tailed Student's t-test, with p<0.05 being significant.

[2] = system: Human coronary artery endothelial cells (HCAEC); assay: Hypoxia-induced endothelial cell apoptosis assay (caspase 3); format: cell-based; details: SFRP2 70 pM and 700 pM, 36 h hypoxia
Experimental: Human coronary artery endothelial cells (HCAEC) were used for apoptosis assays because apoptosis could not be induced in the MEC cells. HCAECs were grown in 10-cm dishes (Becton Dickinson, Franklin Lakes, N.J.) with endothelial cell basal medium-2 (EGM-2) BulletKit media (Clonetics, San Diego, Calif.) until 80% confluent. Medium was then replaced with optimal medium according to different assays. The hypoxic condition was created by incubating HCAECs in EGM-2 media without BulletKit growth factors at 37° C. in a hypoxia chamber with an atmosphere of 5% CO2/95% N2. The oxygen level in the chamber was controlled to 1.0%. Apoptosis was determined by measuring the activity of cleaved caspase 3 by using a caspase-specific fluorogenic substrate according to the protocol for the Caspase 3 Assay Kit (Sigma). HCAECs were lysed after treatment with concentrations of SFRP2 (70 pM and 700 pM) for 36 h under hypoxia. […] The enzyme-catalyzed release of 7-amino-4-methyl coumarin (AMC) was measured by a fluorescence microplate reader.
HCAEC were seeded onto a 96 well plate at 2,000 cells/well in EGM-2 with BulletKit growth supplements. […] Apoptosis was determined by measuring the activity of cleaved caspase 3 by using a caspase-specific fluorogenic substrate according to the protocol for the Apo-ONE® Homogeneous Caspase-3/7 Assay (Promega, Madison, Wis.). […]

NFATc3 = assay: Western blot for nuclear NFATc3 in MEC cells; format: cell-based, mouse; details: SFRP2 700 pM
Experimental: To evaluate the role of the non-canonical Wnt/Ca^++ pathway in SFRP2 induced angiogenesis, nuclear dephosphorylated NFATc3 protein levels were compared in control and SFRP2-treated endothelial cells. MEC cells were plated in 12-well plates and allowed to attach overnight. The next day, the media was changed and added to the wells with and without SFRP2 (700 pM). Cells were incubated for 1, 2, 4, 8 and 16 hours, and the nuclear proteins were extracted by using NE-PER™ nuclear and cytoplasmic extraction reagent from PIERCE (Pierce Biotechnology) as described in the manufacturer's manual. The Western blot analysis was performed using standard methods, with primary antibody to the dephosphorylated (active) β-catenin antibody or NFATc3.

B1: SFRP2: mouse recombinant SFRP2 (US Biologicals), secreted frizzled-related protein 2 (protein)
chain: LFLFGQPDFSYKRSNCKPIPANLQLCHGIEYQNMRLPNLLGHETMKEVLEQAGAWIPLVMKQCHPDTKKFLCSLFAPVCLDDLDETIQPCHSLCVQVKDRCAPVMSAFGFPWPDMLECDRFPQDNDLCIPLASSDHLLPATEEAPKVCEACKTKNEDDNDIMETLCKNDFALKIKVKEITYINRDTKIILETKSKTIYKLNGVSERDLKKSVLWLKDSLQCTCEEMNDINAPYLVMGQKQGGELVITSVKRWQKGQREFKRISRSIRKLQC
endothelial cell migration [1]: increases endothelial cell migration
hypoxia induced endothelial cell apoptosis (cleaved caspase 3 activity) [2]: protected against hypoxia induced endothelial cell apoptosis; also recorded: inhibits hypoxia-induced apoptosis
nuclear NFATc3 level (NFATc3): increased at 30 minutes in the nuclear fraction
